Substitutions are numbered along the chain they refer to. Names and notes keep the numbering of the source.
T1: human OX40 (TNFRSF4, CD134) on cells (human, UniProt P43489 29-277)
T1 sequence: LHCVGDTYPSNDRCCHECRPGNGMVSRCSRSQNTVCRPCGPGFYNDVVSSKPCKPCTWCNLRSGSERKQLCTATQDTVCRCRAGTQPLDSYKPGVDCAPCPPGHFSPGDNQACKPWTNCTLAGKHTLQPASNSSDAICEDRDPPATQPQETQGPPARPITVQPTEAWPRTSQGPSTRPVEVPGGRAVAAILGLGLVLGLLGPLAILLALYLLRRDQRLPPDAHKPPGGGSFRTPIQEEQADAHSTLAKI

T2: Human CD32a (167 Arg), Sino Biological 10374-H08H (human, UniProt P12318 34-218)
T2 construct: also called FcγRIIa167R
T2 sequence (looked up): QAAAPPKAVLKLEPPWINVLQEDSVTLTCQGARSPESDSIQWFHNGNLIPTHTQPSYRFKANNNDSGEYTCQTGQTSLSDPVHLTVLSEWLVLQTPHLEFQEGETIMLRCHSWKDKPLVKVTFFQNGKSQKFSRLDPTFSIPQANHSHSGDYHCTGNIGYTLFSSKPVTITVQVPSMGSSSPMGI

T3: Human CD32a (167 His), Sino Biological 10374-H08H1 (human, UniProt P12318 34-218)
T3 construct: also called FcγRIIa167H
T3 sequence (looked up): T2 sequence (looked up) with R134H

T4: Human CD32b, Sino Biological 10259-H08H (human, UniProt P31994 43-217)
T4 construct: also called FcγRIIb
T4 sequence (looked up): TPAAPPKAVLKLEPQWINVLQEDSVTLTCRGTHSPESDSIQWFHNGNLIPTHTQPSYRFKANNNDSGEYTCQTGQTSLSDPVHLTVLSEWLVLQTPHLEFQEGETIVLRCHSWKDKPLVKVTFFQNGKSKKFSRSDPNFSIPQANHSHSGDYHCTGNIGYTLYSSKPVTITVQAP

T5: Human OX40 (Acro Biosystems, catalog NO: OXO-H5224) protein (human, UniProt P43489 29-216)
T5 construct: Bought protein; also called recombinant human OX40 receptor; recombinant human OX40 protein
T5 sequence: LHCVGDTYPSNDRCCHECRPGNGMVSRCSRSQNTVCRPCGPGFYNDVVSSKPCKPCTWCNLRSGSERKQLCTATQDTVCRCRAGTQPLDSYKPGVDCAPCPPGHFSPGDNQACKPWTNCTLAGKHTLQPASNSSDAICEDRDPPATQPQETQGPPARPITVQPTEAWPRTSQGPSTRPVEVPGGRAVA

B1: MAB1 IgG1 (antibody)
heavy: not shown
light: EIVLTQSPATLSLSPGERATLSCRASSSVSYMHWYQQKPGQAPRPWIYATSNRATGIPARFSGSGSGTDYTLTISSLEPEDFAVYYCQQFGAWPWTFGQGTKVEIKRTVAAPSVFIFPPSDEQLKSGTASVVCLLNNFYPREAKVQWKVDNALQSGNSQESVTEQDSKDSTYSLSSTLTLSKADYEKHKVYACEVTHQGLSSPVTKSFNRGEC
notes: Human IgG1, kappa
B2: MAB10 (antibody, human IgG1, kappa)
heavy: QVTLKESGPALVKPTQTLTLTCSFSGFSLSTSGMGVGWIRQPPGKALEWIAHIWWDDDKYYNTALKTRLTISKDTSKNQVVLTMTNMDPVDTATYYCARIDWDGFAYWGQGTLVTVSSASTKGPSVFPLAPSSKSTSGGTAALGCLVKDYFPEPVTVSWNSGALTSGVHTFPAVLQSSGLYSLSSVVTVPSSSLGTQTYICNVNHKPSNTKVDKKVEPKSCDKTHTCPPCPAPELLGGPSVFLFPPKPKDTLYITREPEVTCVVVDVSHEDPEVKFNWYVDGVEVHNAKTKPREEQYNSTYRVVSVLTVLHQDWLNGKEYKCKVSNKALPAPIEKTISKAKGQPREPQVYTLPPSRDELTKNQVSLTCLVKGFYPSDIAVEWESNGQPENNYKTTPPVLDSDGSFFLYSKLTVDKSRWQQGNVFSCSVMHEALHNHYTQKSLSLSPGK
light: B1 light
notes: MAB1 with M252Y, S254T and T256E (EU numbering) in the IgG1 Fc; also called MAB1 Heavy Chain + YTE
B3: GBR 830 (telazorlimab) (antibody, human IgG1, kappa)
heavy: not shown
light: B1 light with F90W, G91S, A92S, W93N
notes: IgG1; also called Antibody 830; ISB830

Experiments:
[1] = target: T1, human OX40 (TNFRSF4, CD134) on cells; assay: cell-based or functional assay
[2] = target: T1, human OX40 (TNFRSF4, CD134) on cells; assay: cell-based or functional assay; remark: listed apart in the source
[3] = target: Human CD64 (FcγRI), Sino Biological 10256-H08H (human, UniProt P12314 16-288); assay: SPR Biacore 8K+, receptor captured by anti-His, antibody as analyte
Protocol: (§1) Measurements were performed on a Biacore 8K+ instrument (Cytiva Life Sciences) using the Biacore 8K+ Control Software and analyzed with the Biacore Insight Evaluation Software (v3.0). […] After each binding event, baseline levels were restored using a regeneration solution on both flow-paths. HBS-EP+pH 7.4 solution were used as running buffer. Data was analyzed using the MCK evaluation method of the Biacore Insight Evaluation Software and kinetic parameters were determined using the 1:1 binding and steady-state affinity methods.
(§2) Each measurement is the mean of three identical replicate conditions.

[4] = target: T6, Human CD16a (176F), Sino Biological 10389-H08H (human, UniProt P08637 17-208); assay: as above
T6 construct: also called FcγRIIIa176F
Protocol: as §1, §2

[5] = target: T7, Human CD16a (F176V), Sino Biological 10389-H08H1 (human, UniProt P08637 17-208); assay: as above
T7 construct: also called FcγRIIIa176V
Protocol: as §1, §2

[6] = target: T8, Human CD16b (NA2 allotype), Sino Biological 11046-H08H (human, UniProt O75015 17-200); assay: as above
T8 construct: also called FcγRIIIb
Protocol: as §1, §2

[7] = target: T2, Human CD32a (167 Arg), Sino Biological …; assay: as above
Protocol: as §1, §2

[8] = target: T3, Human CD32a (167 His), Sino Biological …; assay: as above
Protocol: as §1, §2

[9] = target: T4, Human CD32b, Sino Biological 10259-H08H; assay: as above
Protocol: as §1, §2

[10] = target: T5, Human OX40 (Acro Biosystems, catalog …); assay: SPR Biacore 8K+, single cycle kinetics, antibody captured by anti-human Fc, OX40 analyte, pH 7.4, 25 °C
Protocol: Measurements were performed on a Biacore 8K+ instrument (Cytiva Life Sciences) the Biacore 8K+ Control Software and analyzed with the Biacore Insight Evaluation Software (v3.0). […] After each binding event, baseline levels were restored using a regeneration solution on both flow-paths. HBS-EP+pH 7.4 solution were used as running buffer. Data was analyzed using the SCK evaluation method of the Biacore Insight Evaluation Software and kinetic parameters were determined using the 1:1 binding fitting model.
as §2

[11] = target: T1, human OX40 (TNFRSF4, CD134) on cells; assay: flow cytometry on Jurkat-NF-κB-OX40 cells, detection with PE anti-human IgG Fc, occupancy in % of the saturating dose; no OX40L; time point (0 h or 5 h) not stated on the sheet
[12] = target: T1, human OX40 (TNFRSF4, CD134) on cells; assay: flow cytometry on Jurkat-NF-κB-OX40 cells, detection with PE anti-human IgG Fc, occupancy in % of the saturating dose; in the presence of 0.3 µg/ml OX40L; time point not stated on the sheet
[13] = target: T1, human OX40 (TNFRSF4, CD134) on cells; assay: flow cytometry on Jurkat-NF-κB-OX40 cells, detection with PE anti-human IgG Fc, occupancy in % of the saturating dose; in the presence of 0.07 µg/ml OX40L; time point not stated on the sheet

T8 sequence (O75015 17-200 N65S limits assumed): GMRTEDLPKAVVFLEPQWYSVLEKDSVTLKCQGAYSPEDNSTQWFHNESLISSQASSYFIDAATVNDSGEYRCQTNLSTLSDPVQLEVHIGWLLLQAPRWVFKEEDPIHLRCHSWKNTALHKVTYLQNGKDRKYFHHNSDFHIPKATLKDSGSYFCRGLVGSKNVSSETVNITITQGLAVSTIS
T7 sequence (P08637 17-208 F176V limits assumed): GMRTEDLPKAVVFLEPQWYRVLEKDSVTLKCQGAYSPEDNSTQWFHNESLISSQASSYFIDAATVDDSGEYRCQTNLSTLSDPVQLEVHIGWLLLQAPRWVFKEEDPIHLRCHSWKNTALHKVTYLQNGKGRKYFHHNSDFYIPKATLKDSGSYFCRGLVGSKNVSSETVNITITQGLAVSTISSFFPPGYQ
T6 sequence (P08637 17-208 limits assumed): as the sequence (P08637 17-208 F176V limits assumed) above, with V160F counted along it
Chain of Human CD64 (FcγRI), Sino Biological 10256-H08H (P12314 16-288 limits assumed): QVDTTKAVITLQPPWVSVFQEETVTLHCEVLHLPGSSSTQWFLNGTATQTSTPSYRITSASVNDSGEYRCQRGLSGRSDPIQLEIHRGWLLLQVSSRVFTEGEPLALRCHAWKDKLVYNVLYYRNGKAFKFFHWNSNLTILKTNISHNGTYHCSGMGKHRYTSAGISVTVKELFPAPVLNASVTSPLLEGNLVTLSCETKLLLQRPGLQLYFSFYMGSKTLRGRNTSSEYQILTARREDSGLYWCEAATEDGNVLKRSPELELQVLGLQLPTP

Row | Binder | EC50, inhibition of IFNγ release [1] [nM] | EC50, inhibition of IL-2 release [1] [nM] | EC50, inhibition of IL-4 release [1] [nM] | EC50, inhibition of IL-5 release [1] [nM] | EC50, inhibition of IL-8 release [1] [nM] | EC50, inhibition of IL-10 release [1] [nM] | EC50, inhibition of IL-13 release [1] [nM] | EC50, inhibition of IL-21 release [1] [nM] | EC50, inhibition of IL-31 release [1] [nM] | EC50, inhibition of TNF-α release [1] [nM] | ADCC EC50, activated T cells (LDH release) [2] [nM] | Kd [3] [nM] | Kd [4] [nM] | Kd [5] [nM] | Kd [6] [nM] | Kd [8] [nM] | Kd [10] [nM] | koff [10] [s⁻¹] | kon [10] [M⁻¹ s⁻¹] | EC50 (read off the curve) [11] [nM] | further results
1 | B1 | 14.6 | 2.36 | 2.83 | 21.3 | 9.19 | 28 | 6.2 | 2.56 | 2.51 | 4.1 | 0.27 | 5.4 | 334 | 297 | 3630 | 4030 | 6.8 | 0.0016 | 230000 | ~0.2 | EC50, inhibition of IL-17a release [1]: 24.4 nM; EC50, inhibition of IL-22 release [1]: 9.19 nM; Fold diff to GBR830, IFNγ [1]: 4.6 fold; Fold diff to GBR830, IL-2 [1]: 3.4 fold; Fold diff to GBR830, IL-4 [1]: 15.8 fold; Fold diff to GBR830, IL-5 [1]: 3 fold; Fold diff to GBR830, IL-8 [1]: 6.3 fold; Fold diff to GBR830, IL-10 [1]: 2.4 fold; Fold diff to GBR830, IL-13 [1]: 11.2 fold; Fold diff to GBR830, IL-21 [1]: 18.5 fold; Fold diff to GBR830, IL-31 [1]: 11.9 fold; Fold diff to GBR830, TNF-α [1]: 10.6 fold; Fold diff to MAB10, ADCC EC50, activated T cells [2]: 0.37 fold; Kd [7]: 6140 nM; Kd [9]: 11600 nM; EC50 (read off the curve) [12]: ~0.2 nM; EC50 (read off the curve) [13]: ~0.2 nM
2 | B2 | 11.8 | 2.63 | 2.88 | 16.4 | 9.55 | 34.1 | 5.3 | 2.75 | 2 | 4.2 | 0.1 | 8.7 | 992 | 816 | 15600 | 12700 | 7.2 | 0.0016 | 230000 | ~0.3 | EC50, inhibition of IL-17a release [1]: 23.5 nM; EC50, inhibition of IL-22 release [1]: 7.03 nM; Fold diff to GBR830, IFNγ [1]: 5.7 fold; Fold diff to GBR830, IL-2 [1]: 3 fold; Fold diff to GBR830, IL-4 [1]: 15.5 fold; Fold diff to GBR830, IL-5 [1]: 3.9 fold; Fold diff to GBR830, IL-8 [1]: 6.1 fold; Fold diff to GBR830, IL-10 [1]: 2 fold; Fold diff to GBR830, IL-13 [1]: 13.1 fold; Fold diff to GBR830, IL-21 [1]: 17.2 fold; Fold diff to GBR830, IL-31 [1]: 14.9 fold; Fold diff to GBR830, TNF-α [1]: 10.3 fold; binding result [7]: no binding (tested: 5,000 nM highest antibody concentration); binding result [9]: no binding (tested: 5,000 nM highest antibody concentration); EC50 (read off the curve) [12]: ~0.4 nM; EC50 (read off the curve) [13]: ~0.3 nM
3 | B3 | 66.7 | 7.92 | 44.8 | 63.6 | 58.2 | 66.8 | 69.6 | 47.3 | 29.9 | 43.3 | 0.13 | 6.2 | 365 | 330 | 3220 | 3410 | 59.3 | 0.0086 | 150000 | ~0.4 | Fold diff to MAB10, ADCC EC50, activated T cells [2]: 0.77 fold; Kd [7]: 4690 nM; Kd [9]: 7260 nM; EC50 (read off the curve) [12]: ~0.7 nM; EC50 (read off the curve) [13]: ~0.5 nM

Source: patent publication US20250353921A1 (ASTRIA THERAPEUTICS, published 2025)
